Laboratory results from patent EP4803548A1 (Beijing Wisdomab Biotechnology Co., Ltd, dated 2026).
Read-outs that look alike come from different tables or passages of the source.

Assays:
[1] = target: T1, HLA-A02/HBsAg348-357 (…) complex on the cell surface (human; human (Homo sapiens) as printed …); experiment: cell-based or functional assay
[2] = target: T1, HLA-A02/HBsAg348-357 (…) complex on the …; experiment: cell-based or functional assay; remark: listed apart in the source
[3] = target: T1, HLA-A02/HBsAg348-357 (…) complex on the …; experiment: cell-based or functional assay; remark: listed apart in the source
[4] = target: T1, HLA-A02/HBsAg348-357 (…) complex on the …; experiment: cell-based or functional assay; remark: listed apart in the source
[5] = target: T2, HLA-A02 complex presenting … (MIP-H1-01), disulfide trap single-chain trimer; experiment: SPR Biacore T200; method of Section 3.1
[6] = target: T3, CD3D-CD3E-mFc (human; mouse); experiment: SPR Biacore T200; method of Section 3.1, CD3D-CD3E-mFc as antigen
T3 construct: also called antigen CD3D-CD3E-mFc
T3 chain 1: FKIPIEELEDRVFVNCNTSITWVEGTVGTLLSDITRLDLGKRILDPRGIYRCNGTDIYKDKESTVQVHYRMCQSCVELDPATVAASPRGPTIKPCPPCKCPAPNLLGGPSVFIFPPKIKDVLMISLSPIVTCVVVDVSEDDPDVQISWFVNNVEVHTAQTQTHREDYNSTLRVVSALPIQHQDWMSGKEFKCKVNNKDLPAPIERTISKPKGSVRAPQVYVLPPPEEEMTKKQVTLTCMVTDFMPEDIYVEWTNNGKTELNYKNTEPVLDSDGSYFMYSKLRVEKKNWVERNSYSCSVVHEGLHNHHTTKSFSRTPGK
T3 chain 2: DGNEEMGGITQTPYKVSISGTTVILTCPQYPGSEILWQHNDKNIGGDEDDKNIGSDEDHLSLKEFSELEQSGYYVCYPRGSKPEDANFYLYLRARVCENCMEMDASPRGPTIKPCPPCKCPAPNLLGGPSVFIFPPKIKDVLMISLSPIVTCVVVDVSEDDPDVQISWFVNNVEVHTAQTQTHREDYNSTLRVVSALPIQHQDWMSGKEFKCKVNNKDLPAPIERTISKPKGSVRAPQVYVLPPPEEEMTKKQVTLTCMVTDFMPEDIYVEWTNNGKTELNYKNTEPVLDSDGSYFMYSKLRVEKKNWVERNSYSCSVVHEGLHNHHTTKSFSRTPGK

[7] = target: T2, HLA-A02 complex presenting … …
[8] = target: T2, HLA-A02 complex presenting … …; remark: listed apart in the source

B1: TCRm×CD3 bispecific antibody 2N1B5+IMCR (bispecific antibody)
chain 1: QVQLVESGGGSVQAGGSLRLSCAASDDTYMTNCMGWFRQAPGKEREGVAAIYTGGGRAVYADSVRGRFTISQDNAKNTVYLQMNSLKPEDTAMYYCAADWLGPDMTDIQVLGALPWFNYWGQGTLVTVSSGGGGSGGGGSGGGGSQVQLVESGGGSVQAGGSLRLSCAASDDTYMTNCMGWFRQAPGKEREGVAAIYTGGGRAVYADSVRGRFTISQDNAKNTVYLQMNSLKPEDTAMYYCAADWLGPDMTDIQVLGALPWFNYWGQGTLVTVSSASERKSSVECPPCPAPEFEGGPSVFLFPPKPKDTLMISRTPEVTCVVVDVSQEDPEVQFNWYVDGVEVHNAKTKPREEQYNSTYRVVSVLTVLHQDWLNGKEYKCKVSNKALPASIEKTISKAKGQPREPQVCTLPPSQEEMTKNQVSLSCAVKGFYPSDIAVEWESNGQPENNYKTTPPVLDSDGSFFLVSKLTVDKSRWQEGNVFSCSVMHEALHNHYTQKSLSLSPGK
chain 2: not shown
In the case of B1, the “EC50 of activation of Jurkat-Dual cells by targeting antigen peptide-pulsed T2 cells (QUANTI-Luc)” value [1] is reported as 2.41 pM, the “EC50 of activation of Jurkat-Dual cells by targeting HLA-A02+/HBsAg+ tumor cells HepG2-HBsAg (QUANTI-Luc)” value [2] is reported as 389 pM and the “EC50 of killing of antigen peptide-pulsed T2 cells by PBMCs (LDH release)” value [3] is reported as 0.278 pM. For the same binder, the “EC50 of killing of HepG2-HBsAg cells by PBMCs (LDH release)” value [4] was 8.83 pM, the Kd [5] was 237 pM and the koff [5] was 0.000145 s⁻¹. The kon [5] was 613000 M⁻¹ s⁻¹, the Kd [6] was 2960 pM and the koff [6] was 0.000175 s⁻¹. For the same binder, the kon [6] was 59200 M⁻¹ s⁻¹.

B2: TCRm×CD3 bispecific antibody 2N1B5-h4+IMCR (bispecific antibody)
chain 1: EVQLVESGGGLVQPGGSLRLSCAASDDTYMTNCMGWFRQAPGKERVGVAAIYTGGGRAVYADSVRGRFTISQDNAKNTVYLQMNSLKPEDTAMYYCAADWLGPDMTDIQVLGALPWFNYWGQGTLVTVSSGGGGSGGGGSGGGGSEVQLVESGGGLVQPGGSLRLSCAASDDTYMTNCMGWFRQAPGKERVGVAAIYTGGGRAVYADSVRGRFTISQDNAKNTVYLQMNSLKPEDTAMYYCAADWLGPDMTDIQVLGALPWFNYWGQGTLVTVSSASERKSSVECPPCPAPEFEGGPSVFLFPPKPKDTLMISRTPEVTCVVVDVSQEDPEVQFNWYVDGVEVHNAKTKPREEQYNSTYRVVSVLTVLHQDWLNGKEYKCKVSNKALPASIEKTISKAKGQPREPQVCTLPPSQEEMTKNQVSLSCAVKGFYPSDIAVEWESNGQPENNYKTTPPVLDSDGSFFLVSKLTVDKSRWQEGNVFSCSVMHEALHNHYTQKSLSLSPGK
chain 2: not shown
B2 was tested, and the “EC50 of killing of antigen peptide-pulsed T2 cells by PBMCs (LDH release)” value [3] was 0.209 pM, the “EC50 of killing of HepG2-HBsAg cells by PBMCs (LDH release)” value [4] was 9.52 pM and the Kd [5] was 531 pM. The koff [5] was 0.00014 s⁻¹, the kon [5] was 263000 M⁻¹ s⁻¹ and the Kd [6] was 2040 pM. For the same binder, the koff [6] was 0.000132 s⁻¹ and the kon [6] was 64700 M⁻¹ s⁻¹.

B3: N1B5-h4-Fc recombinant protein (humanized anti-HLA-A02/HBsAg complex TCRm antibody N1B5-h4) (Fc fusion)
chain: EVQLVESGGGLVQPGGSLRLSCAASDDTYMTNCMGWFRQAPGKERVGVAAIYTGGGRAVYADSVRGRFTISQDNAKNTVYLQMNSLKPEDTAMYYCAADWLGPDMTDIQVLGALPWFNYWGQGTLVTVSS
For B3, the Kd [7] was 191 pM, the koff [7] was 0.000125 s⁻¹ and the kon [7] was 656000 M⁻¹ s⁻¹.

B4: N1B5-Fc recombinant protein (anti-HLA-A02/HBsAg complex TCRm antibody N1B5) (Fc fusion, not shown: a dimerising Fc or GST)
chain: QVQLVESGGGSVQAGGSLRLSCAASDDTYMTNCMGWFRQAPGKEREGVAAIYTGGGRAVYADSVRGRFTISQDNAKNTVYLQMNSLKPEDTAMYYCAADWLGPDMTDIQVLGALPWFNYWGQGTLVTVSS
B4 gave a Kd [8] of 140 pM, a koff [8] of 9.7e-05 s⁻¹ and a kon [8] of 692000 M⁻¹ s⁻¹.
